Test results published in the Immune Epitope Database (IEDB).

How the values were obtained:
HLA-A*01:01 [1] = assay: IEDB peptide-MHC binding, purified MHC/competitive/fluorescence; filed as Kd, often an IC50 or EC50 that approximates it; ≥ and ≤ were set here for values at or beyond the usual limits of such assays
HLA-A*03:01 [2] = assay: as above
HLA-A*26:01 [3] = assay: as above
HLA-B*15:01 [4] = assay: as above
HLA-B*58:01 [5] = assay: as above; details: source organism: Burkholderia orbicola
HLA-A*69:01 [6] = assay: IEDB peptide-MHC binding, purified MHC/direct/fluorescence; filed as Kd, often an IC50 or EC50 that approximates it; ≥ and ≤ were set here for values at or beyond the usual limits of such assays; details: source organism: Francisella tularensis subsp. holarctica LVS
HLA-C*06:02 = assay: as above
HLA-A*24:03 = assay: IEDB peptide-MHC binding, purified MHC/competitive/fluorescence; filed as Kd, often an IC50 or EC50 that approximates it; ≥ and ≤ were set here for values at or beyond the usual limits of such assays; details: source organism: Francisella tularensis subsp. tularensis FSC198
HLA-A*31:01 [7] = assay: as above; details: source organism: Francisella tularensis subsp. tularensis FSC198
HLA-A*26:01 [8] = assay: IEDB peptide-MHC binding, purified MHC/direct/fluorescence; filed as Kd, often an IC50 or EC50 that approximates it; ≥ and ≤ were set here for values at or beyond the usual limits of such assays
HLA-A*26:02 = assay: as above
HLA-B*48:01 = assay: as above
HLA-C*14:02 = assay: as above
HLA-A*02:03 = assay: as above; details: source organism: Calabazo virus
HLA-A*02:16 = assay: as above; details: source organism: Calabazo virus
HLA-A*03:01 [9] = assay: as above
HLA-A*68:02 = assay: as above; details: source organism: Calabazo virus
HLA-B*58:01 [10] = assay: as above
HLA-C*15:02 = assay: as above; details: source organism: Orthohantavirus andesense
HLA-A*69:01 [11] = assay: IEDB peptide-MHC binding, purified MHC/competitive/fluorescence; filed as Kd, often an IC50 or EC50 that approximates it; ≥ and ≤ were set here for values at or beyond the usual limits of such assays
HLA-B*18:01 = assay: as above; details: source organism: Orthohantavirus andesense
HLA-B*27:03 = assay: as above; details: source organism: Orthohantavirus andesense
HLA-B*39:01 [12] = assay: as above; details: source organism: Orthohantavirus andesense
HLA-B*46:01 [13] = assay: as above; details: source organism: Orthohantavirus andesense
HLA-B*51:01 = assay: as above; details: source organism: Orthohantavirus andesense
HLA-A*01:01 [14] = assay: IEDB peptide-MHC binding, purified MHC/direct/fluorescence; filed as Kd, often an IC50 or EC50 that approximates it; ≥ and ≤ were set here for values at or beyond the usual limits of such assays; details: source organism: Burkholderia mallei
HLA-A*02:01 = assay: as above
HLA-B*07:02 = assay: as above; details: source organism: Burkholderia mallei
HLA-B*15:01 [15] = assay: as above
HLA-B*27:05 = assay: as above
HLA-B*39:01 [16] = assay: as above; details: source organism: Influenza A virus (A/mallard/Norway/685/05(H9N2))
HLA-A*31:01 [17] = assay: as above; details: source organism: Camelpox virus M-96
HLA-B*40:01 = assay: as above; details: source organism: Camelpox virus M-96
HLA-B*46:01 [18] = assay: as above; details: source organism: Camelpox virus M-96
HLA-A*11:01 = assay: IEDB peptide-MHC binding, purified MHC/competitive/fluorescence; filed as Kd, often an IC50 or EC50 that approximates it; ≥ and ≤ were set here for values at or beyond the usual limits of such assays; details: source organism: Variola virus
HLA-B*15:17 = assay: as above; details: source organism: Variola virus
HLA-B*57:01 = assay: as above; details: source organism: Variola virus
HLA-A*33:01 = assay: IEDB peptide-MHC binding, purified MHC/competitive/radioactivity; filed as Kd, often an IC50 or EC50 that approximates it; ≥ and ≤ were set here for values at or beyond the usual limits of such assays; details: source organism: Vaccinia virus WR
HLA-A*68:01 = assay: as above; details: source organism: Vaccinia virus WR
HLA-B*35:01 = assay: IEDB peptide-MHC binding, purified MHC/competitive/fluorescence; filed as Kd, often an IC50 or EC50 that approximates it; ≥ and ≤ were set here for values at or beyond the usual limits of such assays; details: source organism: Mycobacterium tuberculosis H37Rv
[19] = source organism: Burkholderia orbicola
[20] = source organism: Vibrio cholerae V51
[21] = source organism: Orthohantavirus andesense
[22] = source organism: Burkholderia mallei
[23] = source organism: Burkholderia mallei ATCC 23344
[24] = source organism: Camelpox virus M-96

ASAAHLAAY
Kd (HLA-A*01:01 [1]; [19]): 0.0236 µM
Kd (HLA-A*03:01 [2]; [19]): 0.7 µM
Kd (HLA-A*26:01 [3]; [19]): 0.775 µM
Kd (HLA-B*15:01 [4]; [19]): 0.156 µM
Kd (HLA-B*58:01 [5]): 1.26 µM

KYYIYRLYF
Kd (HLA-A*69:01 [6]): ≥ 20 µM
Kd (HLA-C*06:02; source organism: Francisella tularensis subsp. tularensis FSC198): ≥ 20 µM
Kd (HLA-A*24:03): 0.0008 µM
Kd (HLA-A*31:01 [7]): ≥ 20 µM

LVFLGPGLY
Kd (HLA-A*01:01 [1]; source organism: Homo sapiens): 0.221 µM

AIARGFHFY
Kd (HLA-A*26:01 [8]; [20]): 1.07 µM
Kd (HLA-A*26:02; [20]): 0.107 µM

AAAAFEAAL
Kd (HLA-B*48:01; source organism: Mycobacterium tuberculosis str. Haarlem): 0.175 µM
Kd (HLA-C*14:02; [19]): 0.166 µM

RMMATKDSF
Kd (HLA-A*02:03): ≥ 20 µM
Kd (HLA-A*02:16): ≥ 20 µM
Kd (HLA-A*03:01 [9]; source organism: Calabazo virus): ≥ 20 µM
Kd (HLA-A*68:02): ≥ 20 µM
Kd (HLA-B*58:01 [10]; source organism: Orthohantavirus moroense): 0.0065 µM
Kd (HLA-C*14:02; [21]): 0.157 µM
Kd (HLA-C*15:02): ≥ 20 µM
Kd (HLA-A*26:01 [3]; [21]): ≥ 20 µM
Kd (HLA-A*69:01 [11]; [21]): ≥ 20 µM
Kd (HLA-B*15:01 [4]; [21]): 0.0441 µM
Kd (HLA-B*18:01): ≥ 20 µM
Kd (HLA-B*27:03): ≥ 20 µM
Kd (HLA-B*39:01 [12]): ≥ 20 µM
Kd (HLA-B*46:01 [13]): ≥ 20 µM
Kd (HLA-B*51:01): ≥ 20 µM

STYQPLPLY
Kd (HLA-A*01:01 [14]): 0.971 µM
Kd (HLA-A*02:01; [22]): ≥ 20 µM
Kd (HLA-A*03:01 [9]; [22]): ≥ 20 µM
Kd (HLA-A*26:01 [8]; [23]): 0.039 µM
Kd (HLA-A*26:02; [23]): ≤ 0.001 µM
Kd (HLA-B*07:02): ≥ 20 µM
Kd (HLA-B*15:01 [15]; [22]): 0.0245 µM
Kd (HLA-B*27:05; [22]): ≥ 20 µM
Kd (HLA-B*58:01 [10]; [22]): 0.195 µM

HRTLLMNEL
Kd (HLA-B*39:01 [16]): ≥ 20 µM
Kd (HLA-C*06:02; source organism: Influenza A virus (A/nt/60/1968(H3N2))): ≥ 20 µM

ETIEILRNY
Kd (HLA-A*02:01; [24]): ≥ 20 µM
Kd (HLA-A*26:01 [8]; [24]): 0.0021 µM
Kd (HLA-A*31:01 [17]): ≥ 20 µM
Kd (HLA-B*27:05; [24]): ≥ 20 µM
Kd (HLA-B*40:01): ≥ 20 µM
Kd (HLA-B*46:01 [18]): ≥ 20 µM
Kd (HLA-B*48:01; [24]): ≥ 20 µM
Kd (HLA-B*58:01 [10]; [24]): ≥ 20 µM
Kd (HLA-A*01:01 [1]; source organism: Variola virus): 3.6 µM
Kd (HLA-A*03:01 [2]; source organism: Variola virus): 1.95 µM
Kd (HLA-A*11:01): ≥ 20 µM
Kd (HLA-A*69:01 [11]; source organism: Variola virus): ≥ 20 µM
Kd (HLA-B*15:17): 0.0869 µM
Kd (HLA-B*57:01): 0.926 µM
Kd (HLA-A*33:01): 2.14 µM
Kd (HLA-A*68:01): 0.0146 µM

AMAAAAAPY
Kd (HLA-B*15:01 [15]; source organism: Mycobacterium tuberculosis variant bovis BCG str. Pasteur 1173P2): 0.294 µM
Kd (HLA-C*14:02; source organism: Mycobacterium tuberculosis H37Rv): 0.094 µM
Kd (HLA-B*35:01): 0.0083 µM
